The values below are quoted from earlier work in patent US8541373B2, “BChE albumin fusions for the treatment of cocaine abuse” (priority 2009, dated 2013).

For this series the following is noted: cited from earlier work.

Positions count from the first letter of the chain named. In names and notes the source's numbering stands.

B1: A328W/Y332A (protein, UniProt P06276 29-602, looked up, variant A328W Y332A)
Cholinesterase: EDDIIIATKNGKVRGMNLTVFGGTVTAFLGIPYAQPPLGRLRFKKPQSLTKWSDIWNATKYANSCCQNIDQSFPGFHGSEMWNPNTDLSEDCLYLNVWIPAPKPKNATVLIWIYGGGFQTGTSSLHVYDGKFLARVERVIVVSMNYRVGALGFLALPGNPEAPGNMGLFDQQLALQWVQKNIAAFGGNPKSVTLFGESAGAASVSLHLLSPGSHSLFTRAILQSGSFNAPWAVTSLYEARNRTLNLAKLTGCSRENETEIIKCLRNKDPQEILLNEAFVVPYGTPLSVNFGPTVDGDFLTDMPDILLELGQFKKTQILVGVNKDEGTWFLVAGAPGFSKDNNSIITRKEFQEGLKIFFPGVSEFGKESILFHYTDWVDDQRPENYREALGDVVGDYNFICPALEFTKKFSEWGNNAFFYYFEHRSSKLPWPEWMGVMHGYEIEFVFGLPLERRDNYTKAEEILSRSIVKRWANFAKYGNPNETQNNSTSWPVFKSTEQKYLTLNTESTRIMTKLRAQQCRFWTSFFPKVLEMTGNIDEAEWEWKAGFHRWNNYMMDWKNQFNDYTSKKESCVGL
B1: the “kcat relative to wild-type BChE” value (cocaine hydrolase activity) is 40 fold.

B2: A227S/S315G/A356W/Y360G (protein, UniProt P06276 29-602, looked up, variant A227S S315G A356W Y360G)
Cholinesterase: B1 Cholinesterase with A199S, S287G, A332G
Consider B2, for which the “Catalytic efficiency relative to wild-type BChE” value (hydrolysis of cocaine) is 500 fold.
